# T1: biotinylated ectodomain of human Robo 4 with C-terminal AcTEV protease site, Avi-tag and 6xHis-tag (human, biotin on the Avi-tag (in vivo biotinylated via co-expression of BirA))
# T1 construct: also called biotinylated human Robo 4
# T1 chain: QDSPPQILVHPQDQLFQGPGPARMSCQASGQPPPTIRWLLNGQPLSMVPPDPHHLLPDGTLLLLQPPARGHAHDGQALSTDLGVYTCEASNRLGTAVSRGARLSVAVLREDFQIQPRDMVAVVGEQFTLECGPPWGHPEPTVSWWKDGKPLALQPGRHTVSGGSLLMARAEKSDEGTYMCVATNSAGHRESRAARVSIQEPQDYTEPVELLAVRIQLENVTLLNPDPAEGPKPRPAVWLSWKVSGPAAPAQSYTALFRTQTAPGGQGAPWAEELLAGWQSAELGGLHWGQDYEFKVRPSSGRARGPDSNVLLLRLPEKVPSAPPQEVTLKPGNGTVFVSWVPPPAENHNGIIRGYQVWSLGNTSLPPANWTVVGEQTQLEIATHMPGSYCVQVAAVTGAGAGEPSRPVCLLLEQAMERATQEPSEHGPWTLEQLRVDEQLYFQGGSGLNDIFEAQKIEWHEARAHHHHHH
# T2: murine (mu) Robo 4 ECD-PreS-Avi-His (mouse)
# T2 construct: also called recombinant murine Robo 4; murine Robo 4
# T2 chain: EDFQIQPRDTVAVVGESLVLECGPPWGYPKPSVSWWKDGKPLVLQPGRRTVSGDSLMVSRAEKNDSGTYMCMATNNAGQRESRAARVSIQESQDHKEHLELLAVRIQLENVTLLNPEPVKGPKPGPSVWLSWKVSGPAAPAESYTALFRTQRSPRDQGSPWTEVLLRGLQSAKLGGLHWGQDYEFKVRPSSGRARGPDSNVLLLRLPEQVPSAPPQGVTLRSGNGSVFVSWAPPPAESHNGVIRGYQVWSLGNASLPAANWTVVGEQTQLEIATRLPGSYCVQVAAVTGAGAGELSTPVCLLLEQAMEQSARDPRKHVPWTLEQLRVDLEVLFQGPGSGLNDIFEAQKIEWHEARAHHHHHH
# T3: recombinant cynomolgus Robo 4 ECD fused to AcTEV protease recognition site, Avi- and 6xHis-tag (cynomolgus)
# T3 construct: Biotinylated in the avidity assay
# T3 chain: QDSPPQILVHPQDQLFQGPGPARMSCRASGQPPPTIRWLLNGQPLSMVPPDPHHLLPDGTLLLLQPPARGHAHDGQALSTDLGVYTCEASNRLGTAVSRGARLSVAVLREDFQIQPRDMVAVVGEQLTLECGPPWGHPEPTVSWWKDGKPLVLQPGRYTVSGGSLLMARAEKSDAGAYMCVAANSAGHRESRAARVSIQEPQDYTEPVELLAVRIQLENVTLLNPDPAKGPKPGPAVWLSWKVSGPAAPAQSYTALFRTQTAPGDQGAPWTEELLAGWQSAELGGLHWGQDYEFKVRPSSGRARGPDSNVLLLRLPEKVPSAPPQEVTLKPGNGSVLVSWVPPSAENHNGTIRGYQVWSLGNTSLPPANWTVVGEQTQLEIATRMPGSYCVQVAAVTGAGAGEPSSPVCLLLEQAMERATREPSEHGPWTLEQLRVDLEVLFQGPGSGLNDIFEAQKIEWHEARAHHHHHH
# B1: 7G2 Fab (phage display clone, bacterially expressed) (Fab, V domains shown)
# VH: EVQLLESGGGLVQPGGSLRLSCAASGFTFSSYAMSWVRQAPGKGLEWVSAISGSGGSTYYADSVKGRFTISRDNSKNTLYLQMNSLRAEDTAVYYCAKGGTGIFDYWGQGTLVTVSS
# VL: EIVLTQSPGTLSLSPGERATLSCRASQSVSSSYLAWYQQKPGQAPRLLIYGASSRATGIPDRFSGSGSGTDFTLTISRLEPEDFAVYYCQQGQLPPRTFGQGTKVEIK
# notes: also called clone 7G2
# Experiments:
# [1] = target: T1, biotinylated ectodomain of human Robo 4 …; experiment: SPR, BioRad ProteOn XPR36, purified Fab, monovalent affinity; human Robo 4; Fab, monovalent affinity
# [2] = target: T2, murine (mu) Robo 4 ECD-PreS-Avi-His; experiment: SPR, BioRad ProteOn XPR36, purified Fab
# [3] = target: T3, recombinant cynomolgus Robo 4 ECD fused …; experiment: SPR, BioRad ProteOn XPR36, purified Fab, monovalent affinity; cynomolgus Robo 4; Fab, monovalent affinity
binder,measurement,setting,value
B1,Kd,[1],14.9 nM
same,binding result,[2],no binding
same,Kd,[3],20.5 nM
